Source: US20100104509A1, “HUMAN ANTIBODIES THAT BIND CD19 AND USES THEREOF” (Medarex, Inc., priority 2006, published 2010)
Several values for one entry are separate records, joined by “and”; a condition that tells them apart may be missing. Identical values can stand only once.

How the values were obtained:
Raji B cell line = target: T1, Raji B cell line (Homo sapiens, UniProt P15391); test: Flow cytometry binding to Raji cells
T1 construct: the CD19 protein is expressed on the surface of tumor cell lines of B cell origin; host or cells: Raji (human Burkitt's lymphoma B cell line)
T1 sequence (P15391 20-556): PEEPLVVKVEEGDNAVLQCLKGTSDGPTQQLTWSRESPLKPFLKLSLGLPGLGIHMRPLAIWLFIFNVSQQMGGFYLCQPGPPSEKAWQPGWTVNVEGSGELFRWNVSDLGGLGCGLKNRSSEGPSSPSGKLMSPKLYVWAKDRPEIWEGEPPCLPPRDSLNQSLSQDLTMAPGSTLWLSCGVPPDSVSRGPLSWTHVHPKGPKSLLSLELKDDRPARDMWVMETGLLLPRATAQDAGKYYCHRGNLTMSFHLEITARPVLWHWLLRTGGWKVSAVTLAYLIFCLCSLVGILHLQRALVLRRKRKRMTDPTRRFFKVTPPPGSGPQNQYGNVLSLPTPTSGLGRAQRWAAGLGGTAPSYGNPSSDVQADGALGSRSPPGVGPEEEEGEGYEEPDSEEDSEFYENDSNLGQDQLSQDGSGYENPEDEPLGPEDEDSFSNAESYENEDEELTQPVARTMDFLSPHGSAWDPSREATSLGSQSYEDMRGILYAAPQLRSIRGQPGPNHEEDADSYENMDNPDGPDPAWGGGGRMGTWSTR
Description: Binding of the CD19 HuMAbs by flow cytometry to the B cell tumor lines Raji and Daudi, or to a CHO-CD19 transfected cell line was assessed. CHO cells were transfected with an expression plasmid containing the full length cDNA encoding the transmembrane form of CD19. […] A known murine anti-CD19 antibody was used as a positive control. The cells were washed and detected by either a phycoerythrin-labeled anti-human or anti-mouse secondary antibody and analyzed by flow cytometry. The results for binding to the CHO-CD19 cell line, Daudi B cell line, Raji B cell line and an expanded binding set against the Raji B cell line are shown in FIGS. 25A, 25B, 25C and 25D, respectively. […] All results are shown as measured by the geometric mean fluorescent intensity (GMFI) of staining.

[1] = Capillary isoelectric focusing; format: physicochemical; details: capillary isoelectric focusing kit assay; listed as fucosylated 21D4a
[2] = Differential scanning calorimetry; format: physicochemical; details: 2.3 μM in PBS pH 7.4, 30 to 95° C. at 1° C./min
Description: The thermal stability of the anti-CD19 monoclonal antibodies were compared using calorimetric analysis of their melting temperatures.
Calorimetric measurements of melting Temperatures™ were carried out on a VP-Capillary DSC differential scanning microcalorimeter platform that is combined with an autosampler (MicroCal LLC, Northampton, Mass., USA). Sample cell volume is 0.144 mL. Denaturation data on the glycosylated and deglycosylated forms of the antibodies was obtained by heating the samples, at a concentration of 2.3 μM, from 30 to 95° C. at a rate of 1° C./min. The protein samples were present in phosphate-buffered saline (PBS) at pH 7.4. The same buffer was used in the reference cell to obtain the molar heat capacity by comparison. The observed thermograms were baseline corrected and normalized data analyzed based on a 2-state model, using the software Origin v7.0.

[3] = Chemical denaturation by fluorescence spectroscopy; format: physicochemical; details: guanidinium hydrochloride in PBS, 24 hours, 2 μM antibody
Description: The stability of anti-CD19 monoclonal antibodies were compared by measuring the midpoint of chemical denaturation by fluorescence spectroscopy.
Fluorescence measurements of chemical denaturation were performed on a SPEX Fluorolog 3.22 with a Micromax plate reader (SPEX, Edison, N.J.). The measurements were performed on antibody samples that had been left for 24 hours to equilibrate in 16 different concentrations of guanidinium hydrochloride in PBS buffer. The measurements were made in black, low volume, non-binding surface 384-well plates (Corning, Acton, Mass.) and required 2 μM of antibody in a well volume of 12 μL Fluorescence was excited at 280 nm and the emission spectra were measured between 300 and 400 nm. The scan speed was 1 second per nm and slits were set to 5 nm bandpass. A buffer blank was performed using PBS and automatically subtracted from the data.

Row | Molecule | binding by flow cytometry (GMFI) (Raji B cell line) | observed pI values [1] | Thermo Stability Tm1 [2] [°C] | Unfolding Midpoint [3] [M] | Aggregation Peak [3] [M]
1 | 21D4a: human monoclonal anti-CD19 antibody, VH SEQ ID NO: 1 and VL SEQ ID NO: 9 (antibody, listed as Homo sapiens, V domains shown) VH: EVQLVQSGAEVKKPGESLKISCKGSGYSFSSSWIGWVRQMPGKGLEWMGIIYPDDSDTRYSPSFQGQVTISADKSIRTAYLQWSSLKASDTAMYYCARHVTMIWGVIIDFWGQGTLVTVSS VL: AIQLTQSPSSLSASVGDRVTITCRASQGISSALAWYQQKPGKAPKLLIYDASSLESGVPSRFSGSGSGTDFTLTISSLQPEDFATYYCQQFNSYPFTFGPGTKVDIK | bound to the Raji B cell line | 8.44 pH and 8.21 pH | 69.7 | 2.97 | 
2 | 5G7-N19Q: 5G7 with N-I-S sequence starting at position 19 changed to Q-I-S (antibody, V domains shown) VH: EVQLVQSGAEVKKPGESLQISCKGSGYSFTSYWIGWVRQMPGKGLEWMGIIYPGDSDTRYSPSFQGQVTISADKSINTAYLQWSSLKASDTAMYYCARGVSMIWGVIMDVWGQGTTVTVSS VL: AIQLTQSPSSLSASVGDRVTITCRASQGISSALAWYQQKPGKAPKLLIYDASSLESGVPSRFSGSGSGTDFTLTISSLQPEDFATYYCQQFNSYPWTFGQGTKVEIK | bound to the Raji B cell line |  |  |  | 
3 | 5G7-N19K: 5G7 with N-I-S sequence starting at position 19 changed to K-I-S (antibody, V domains shown) VH: EVQLVQSGAEVKKPGESLKISCKGSGYSFTSYWIGWVRQMPGKGLEWMGIIYPGDSDTRYSPSFQGQVTISADKSINTAYLQWSSLKASDTAMYYCARGVSMIWGVIMDVWGQGTTVTVSS VL: AIQLTQSPSSLSASVGDRVTITCRASQGISSALAWYQQKPGKAPKLLIYDASSLESGVPSRFSGSGSGTDFTLTISSLQPEDFATYYCQQFNSYPWTFGQGTKVEIK | bound to the Raji B cell line |  |  |  | 
4 | 46E8: human monoclonal anti-CD19 antibody, VH SEQ ID NO: 7 and VL SEQ ID NO: 15 (antibody, listed as Homo sapiens, V domains shown) VH: EVQLVQSGAEVKKPGESLQISCKGSGYTFTNYWIAWVRQMPGKGLEWMGIIYPGDSDTRYSPSFQGQVTISADKSISTAYLQWSGLKASDTAMYYCARQGYSSGWRSYYGMGVWGQGTTVTVSS VL: AIQLTQSPSSLSASVGDRVTITCRASQGISSALAWYQQKPGKAPKLLIYDASSLESGVPSRFSGSGSGTDFTLTISSLQPEDFATYYCQQFNSYPHTFGQGTKLEIK |  |  | 66.4 | 2.43 | 2.16
5 | 13F1: human monoclonal anti-CD19 antibody, VH SEQ ID NO: 6 and VL SEQ ID NO: 14 (antibody, listed as Homo sapiens, V domains shown) VH: EVQLVQSGAEVKKPGESLQISCKGSGYTFTNYWIAWVRQMPGKGLEWMGIIYPGDSDTRYSPSFQGQVTISADKSISTAYLQWSGLKASDTAMYYCARQGYSSGWRSYYGMGVWGQGTTVTVSS VL: AIQLTQSPSSLSASVGDRVTITCRASQGISSALAWYQQKPGKAPKLLIYDASSLESGVPSRFSGSGSGTDFTLTISSLQPEDFATYYCQQFNSYPHTFGQGTKLEIK | bound to the Raji B cell line |  |  |  | 
6 | 5G7: human monoclonal anti-CD19 antibody, VH SEQ ID NO: 5 and VL SEQ ID NO: 13 (antibody, listed as Homo sapiens, V domains shown) VH: EVQLVQSGAEVKKPGESLNISCKGSGYSFTSYWIGWVRQMPGKGLEWMGIIYPGDSDTRYSPSFQGQVTISADKSINTAYLQWSSLKASDTAMYYCARGVSMIWGVIMDVWGQGTTVTVSS VL: AIQLTQSPSSLSASVGDRVTITCRASQGISSALAWYQQKPGKAPKLLIYDASSLESGVPSRFSGSGSGTDFTLTISSLQPEDFATYYCQQFNSYPWTFGQGTKVEIK | bound to the Raji B cell line |  | 68.5 | 2.91 | 
